Assay results reported in PMC11367474, “Two-metal ion mechanism of DNA cleavage by activated, filamentous SgrAI”.
Positions count from the first letter of the chain named.

Legend:
SgrAI K242A = target: T1, SgrAI K242A (UniProt Q9F6L0 1-339, K242A;L336K); experiment: cryo-EM structure (3.3 A); Mg2+ in sites A and B; filament; DNA uncleaved; 30 min at room temperature; Cryo-EM samples: buffer containing MgCl2, room temperature (30 min for K242A, 1.5 h for WT); full buffer, salt and pH not in the material; settings: protein: recombinant; tags: His tag implied (HisTrap purification); chain copies: 2; blunt
T1 sequence: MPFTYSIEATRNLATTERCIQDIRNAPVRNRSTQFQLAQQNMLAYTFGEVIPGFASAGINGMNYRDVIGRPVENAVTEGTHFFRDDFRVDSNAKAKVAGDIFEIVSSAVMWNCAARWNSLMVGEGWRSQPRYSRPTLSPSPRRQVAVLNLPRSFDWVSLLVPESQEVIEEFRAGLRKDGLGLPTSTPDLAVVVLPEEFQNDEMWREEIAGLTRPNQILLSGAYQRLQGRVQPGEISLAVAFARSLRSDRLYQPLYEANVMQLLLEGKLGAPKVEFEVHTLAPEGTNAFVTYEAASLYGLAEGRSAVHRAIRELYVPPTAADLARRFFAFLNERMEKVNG

SgrAI WT = target: T2, SgrAI WT (UniProt Q9F6L0 1-339); experiment: cryo-EM structure (3.1 A); Mg2+ in sites A and B; filament; DNA cleaved at the scissile phosphate during 1.5 h incubation (product complex); Cryo-EM samples: buffer containing MgCl2, room temperature (30 min for K242A, 1.5 h for WT); full buffer, salt and pH not in the material; settings: protein: recombinant; tags: His tag implied (HisTrap purification); chain copies: 2; blunt
T2 sequence: T1 sequence with A242K, K336L

B1: 40-1 (dsDNA)
DNA 1: GATGCGTGGGTCTTCACACCGGTGGATGCGTGGGTCTTCA
DNA 2: TGAAGACCCACGCATCCACCGGTGTGAAGACCCACGCATC
B1: binds (SgrAI K242A); binds (SgrAI WT).
